In patent US20060014212A1:
Where no end group is shown, it is not given here.

Legend:
[1] = biological target: anti-A044 antibody (Fibronectin PET); assay: peptide competition assay in 6% BSA
[2] = biological target: anti-A045 antibody (Fibronectin PET); assay: peptide competition assay in 6% BSA
[3] = biological target: anti-A046 antibody (Fibronectin PET); assay: peptide competition assay in 6% BSA
[4] = biological target: anti-A047 antibody (Fibronectin PET); assay: peptide competition assay in 6% BSA
[5] = biological target: anti-A049 antibody (FactorXII PET); assay: peptide competition assay in 6% BSA
antibody C1 = assay: peptide competition ELISA: soluble peptide against immobilized target peptide for antibody C1
[6] = biological target: anti-A001 antibody (TGFbeta1 PET); assay: peptide competition assay in 6% BSA
[7] = biological target: anti-A002 antibody (TGFbeta1 PET); assay: peptide competition assay in 6% BSA
[8] = biological target: anti-A003 antibody (TGFbeta1 PET); assay: peptide competition assay in 6% BSA
[9] = biological target: anti-A004 antibody (ERK1 PET); assay: peptide competition assay in 6% BSA
[10] = biological target: anti-A005 antibody (ERK1 PET); assay: peptide competition assay in 6% BSA
[11] = biological target: anti-A006 antibody (pERK1 PET); assay: peptide competition assay in 6% BSA
[12] = biological target: anti-A007 antibody (ERK2 PET); assay: peptide competition assay in 6% BSA
[13] = biological target: anti-A008 antibody (ERK2 PET); assay: peptide competition assay in 6% BSA
[14] = biological target: anti-A009 antibody (pERK2 PET); assay: peptide competition assay in 6% BSA
[15] = biological target: anti-A010 antibody (MEK1 PET); assay: peptide competition assay in 6% BSA
[16] = biological target: anti-A011 antibody (MEK1 PET); assay: peptide competition assay in 6% BSA
[17] = biological target: anti-A012 antibody (Thyroglobulin PET); assay: peptide competition assay in 6% BSA
[18] = biological target: anti-A013 antibody (Thyroglobulin PET); assay: peptide competition assay in 6% BSA
[19] = biological target: anti-A014 antibody (Thyroglobulin PET); assay: peptide competition assay in 6% BSA
[20] = biological target: anti-A015 antibody (Thyroglobulin PET); assay: peptide competition assay in 6% BSA
[21] = biological target: anti-A016 antibody (Thyroglobulin PET); assay: peptide competition assay in 6% BSA
[22] = biological target: anti-A017 antibody (Troponin I PET); assay: peptide competition assay in 6% BSA
[23] = biological target: anti-A020 antibody (Troponin I PET); assay: peptide competition assay in 6% BSA
[24] = biological target: anti-A021 antibody (PSA PET); assay: peptide competition assay in 6% BSA
[25] = biological target: anti-A022 antibody (PSA PET); assay: peptide competition assay in 6% BSA
[26] = biological target: anti-A023 antibody (PSA PET); assay: peptide competition assay in 6% BSA
[27] = biological target: anti-A024 antibody (IL-1beta PET); assay: peptide competition assay in 6% BSA
[28] = biological target: anti-A025 antibody (IL-1beta PET); assay: peptide competition assay in 6% BSA
[29] = biological target: anti-A026 antibody (IL-1beta PET); assay: peptide competition assay in 6% BSA
[30] = biological target: anti-A027 antibody (IL-1beta PET); assay: peptide competition assay in 6% BSA
[31] = biological target: anti-A028 antibody (IL-1beta PET); assay: peptide competition assay in 6% BSA
[32] = biological target: anti-A031 antibody (C3 PET); assay: peptide competition assay in 6% BSA
[33] = biological target: anti-A034 antibody (C4 PET); assay: peptide competition assay in 6% BSA
[34] = biological target: anti-A035 antibody (C4 PET); assay: peptide competition assay in 6% BSA
[35] = biological target: anti-A037 antibody (C9 PET); assay: peptide competition assay in 6% BSA
[36] = biological target: anti-A039 antibody (C9 PET); assay: peptide competition assay in 6% BSA
[37] = biological target: anti-A043 antibody (CRP PET); assay: peptide competition assay in 6% BSA

B1: A044 peptide (Fibronectin), …-NH2 (peptide)
peptide: CHEGGQSYK-NH2
- IC50 [1]: 8 nM

B2: A045 peptide (Fibronectin), …-NH2 (peptide)
peptide: CTFYQIGDSWEK-NH2
- IC50 [2]: 1 nM

B3: A046 peptide (Fibronectin), …-NH2 (peptide)
peptide: CTTQNYDADQK-NH2
- IC50 [3]: 20 nM

B4: A047 peptide (Fibronectin), Ac-… (peptide)
peptide: Ac-VDVIPVNLPGEHGQRC
- IC50 [4]: 10 nM

B5: A049 peptide (FactorXII), …-NH2 (peptide)
peptide: CVAGWGHQFEGAEEY-NH2
- IC50 [5]: 15 nM

B6: CRP-derived 8-mer PET YEVQGEVF (peptide)
peptide: YEVQGEVF
- IC50 (antibody C1): 1000 nM

B7: A001 peptide (TGFbeta1), Ac-… (peptide)
peptide: Ac-ALYNQHNPGASAAPC
- IC50 [6]: 0.8 nM

B8: A002 peptide (TGFbeta1), Ac-… (peptide)
peptide: Ac-PQALEPLPIVYYVGRC
- IC50 [7]: 3 nM

B9: A003 peptide (TGFbeta1), …-NH2 (peptide)
peptide: CYIWSLDTQYSK-NH2
- IC50 [8]: 8 nM

B10: A004 peptide (ERK1), Ac-… (peptide)
peptide: Ac-ITVEEALAHPYLEQC
- IC50 [9]: 25 nM

B11: A005 peptide (ERK1), …-NH2 (peptide)
peptide: CVAEEPFTFDMELDD-NH2
- IC50 [10]: 6 nM

B12: A006 peptide (ERK1), Ac-… (peptide)
peptide: Ac-IADPEHDHTGC
- IC50 [11]: 6 nM

B13: A007 peptide (ERK2), Ac-… (peptide)
peptide: Ac-IEVEQALAHPYLEQC
- IC50 [12]: 4 nM

B14: A008 peptide (ERK2), …-NH2 (peptide)
peptide: CDPSDEPIAEAPFK-NH2
- IC50 [13]: 6 nM

B15: A009 peptide (ERK2), Ac-… (peptide)
peptide: Ac-VADPDHDHTGC
- IC50 [14]: 31 nM

B16: A010 peptide (MEK1), Ac-… (peptide)
peptide: Ac-PTPIQLNPAPDGC
- IC50 [15]: 36 nM

B17: A011 peptide (MEK1), …-NH2 (peptide)
peptide: CGTSSAETNLEALQK-NH2
- IC50 [16]: 23 nM

B18: A012 peptide (Thyroglobulin), Ac-… (peptide)
peptide: Ac-GGQSAESEEEELC
- IC50 [17]: 10 nM

B19: A013 peptide (Thyroglobulin), Ac-… (peptide)
peptide: Ac-ELAETGLELLC
- IC50 [18]: 8 nM

B20: A014 peptide (Thyroglobulin), …-NH2 (peptide)
peptide: CEIYDTIFAGLD-NH2
- IC50 [19]: 5 nM

B21: A015 peptide (Thyroglobulin), …-NH2 (peptide)
peptide: CDFSTPLAHFDLR-NH2
- IC50 [20]: 4 nM

B22: A016 peptide (Thyroglobulin), …-NH2 (peptide)
peptide: CDEAGQELEGMR-NH2
- IC50 [21]: 4 nM

B23: A017 peptide (Troponin I), Ac-… (peptide)
peptide: Ac-AYATEPHAKC
- IC50 [22]: 10 nM

B24: A020 peptide (Troponin I), Ac-… (peptide)
peptide: Ac-NIDALSGMEGRC
- IC50 [23]: 4 nM

B25: A021 peptide (PSA), Ac-… (peptide)
peptide: Ac-LSEPAELTDAVKC
- IC50 [24]: 8 nM

B26: A022 peptide (PSA), …-NH2 (peptide)
peptide: CDLPTQEPALG-NH2
- IC50 [25]: 8 nM

B27: A023 peptide (PSA), …-NH2 (peptide)
peptide: CGSIEPEEFLTPK-NH2
- IC50 [26]: 8 nM

B28: A024 peptide (IL-1beta), …-NH2 (peptide)
peptide: CNEDDLFFEADGPK-NH2
- IC50 [27]: 0.5 nM

B29: A025 peptide (IL-1beta), Ac-… (peptide)
peptide: Ac-SLVMSGPYELKC
- IC50 [28]: 5 nM

B30: A026 peptide (IL-1beta), Ac-… (peptide)
peptide: Ac-PTLQLESVDPKC
- IC50 [29]: 8 nM

B31: A027 peptide (IL-1beta), …-NH2 (peptide)
peptide: CLEFESAQFPNWY-NH2
- IC50 [30]: 5 nM

B32: A028 peptide (IL-1beta), …-NH2 (peptide)
peptide: CENMPVFLGGTK-NH2
- IC50 [31]: 0.5 nM

B33: A031 peptide (C3), …-NH2 (peptide)
peptide: CHYLDETEQWEK-NH2
- IC50 [32]: 5 nM

B34: A034 peptide (C4), …-NH2 (peptide)
peptide: CQTDQPIYNPGQR-NH2
- IC50 [33]: 4 nM

B35: A035 peptide (C4), …-NH2 (peptide)
peptide: CEANEDYEDYEYDE-NH2
- IC50 [34]: 4 nM

B36: A037 peptide (C9), …-NH2 (peptide)
peptide: CTEHYEEQIEAFK-NH2
- IC50 [35]: 0.5 nM

B37: A039 peptide (C9), Ac-… (peptide)
peptide: Ac-PWNVASLIYETKC
- IC50 [36]: 0.4 nM

B38: A043 peptide (CRP), …-NH2 (peptide)
peptide: CYEVQGEVFTK-NH2
- IC50 [37]: 4 nM
